Values belong to the binder of their own block, whether it stands above or below them.
Assays:
[1] = target: IQGAP1, endogenous, human NSCLC tissues (human, UniProt P46940 2-1657); assay: in situ PLA with probes for GLK and IQGAP1, human NSCLC tissue sections (FIGS. 21A-B)
Description: These tissues were subjected to in situ proximity ligation assay (PLA) with a combination of paired PLA probes corresponding to GLK and IQGAP1. […] The few PLA signals in the normal adjacent tissues of NSCLC patients may be metastatic cancer cells migrating from original lesion. […] Next, we studied whether the GLK−IQGAP1 complex could act as a potential prognostic biomarker for NSCLCs. NSCLC (squamous cell carcinoma and adenocarcinoma) patients, whose survival data were available, were divided into four PLA-signal subgroups after cluster analyses. The two subgroups with highest PLA signals contained only one and two patients, respectively, thus, these two subgroups were excluded from further analysis. The remaining two subgroups (n=63) were subjected to Kaplan-Meier survival analysis using the survival data (available from the provider). […] The higher P value (P=0.069) may be due to the exclusion of three data with highest PLA signals. Nevertheless, NSCLC patients with more GLK−IQGAP1 complexes have a lower survival rate than that of the patients with less GLK−IQGAP1 complexes. Because 40% to 60% of NSCLC patients the of cancer recurrence after cancer resection, we studied whether the GLK−IQGAP1 complex is associated with NSCLC metastasis. […]

[2] = target: T1, AhR, endogenous, human peripheral blood T cells (SLE and RA patients) (human, UniProt P35869 11-848, limits assumed); assay: in situ PLA, human peripheral blood T cells (FIG. 8C)
T1 sequence (looked up): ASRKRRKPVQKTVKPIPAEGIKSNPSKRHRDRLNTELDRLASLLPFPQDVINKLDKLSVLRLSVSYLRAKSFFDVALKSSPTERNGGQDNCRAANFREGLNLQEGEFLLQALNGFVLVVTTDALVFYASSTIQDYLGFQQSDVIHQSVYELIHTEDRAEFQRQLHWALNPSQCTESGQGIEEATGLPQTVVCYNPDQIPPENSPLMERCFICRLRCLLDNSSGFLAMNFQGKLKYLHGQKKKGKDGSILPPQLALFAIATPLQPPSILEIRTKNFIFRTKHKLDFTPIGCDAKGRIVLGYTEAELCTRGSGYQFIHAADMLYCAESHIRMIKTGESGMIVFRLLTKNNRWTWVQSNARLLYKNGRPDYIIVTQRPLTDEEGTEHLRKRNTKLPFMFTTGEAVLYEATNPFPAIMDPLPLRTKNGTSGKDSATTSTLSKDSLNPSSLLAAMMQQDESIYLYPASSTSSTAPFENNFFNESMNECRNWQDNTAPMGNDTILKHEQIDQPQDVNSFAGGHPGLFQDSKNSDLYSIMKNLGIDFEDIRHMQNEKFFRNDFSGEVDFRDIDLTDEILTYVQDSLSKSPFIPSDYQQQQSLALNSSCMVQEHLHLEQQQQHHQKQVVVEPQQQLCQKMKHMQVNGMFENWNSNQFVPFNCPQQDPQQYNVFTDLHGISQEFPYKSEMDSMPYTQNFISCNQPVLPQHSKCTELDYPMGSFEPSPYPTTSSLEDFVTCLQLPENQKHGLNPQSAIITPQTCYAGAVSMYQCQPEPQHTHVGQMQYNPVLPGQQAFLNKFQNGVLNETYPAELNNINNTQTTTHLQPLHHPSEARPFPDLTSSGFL

[3] = target: IQGAP1, endogenous, lung tissues of mice in the LLC/luc metastatic lung cancer model (mouse, UniProt Q9JKF1 2-1657); assay: in situ PLA, lung tissues of the LLC/luc mouse model (FIG. 16H, upper panel)
Sequence of IQGAP1, endogenous, lung tissues of mice in the LLC/luc metastatic lung cancer model (Q9JKF1 2-1657 limits assumed): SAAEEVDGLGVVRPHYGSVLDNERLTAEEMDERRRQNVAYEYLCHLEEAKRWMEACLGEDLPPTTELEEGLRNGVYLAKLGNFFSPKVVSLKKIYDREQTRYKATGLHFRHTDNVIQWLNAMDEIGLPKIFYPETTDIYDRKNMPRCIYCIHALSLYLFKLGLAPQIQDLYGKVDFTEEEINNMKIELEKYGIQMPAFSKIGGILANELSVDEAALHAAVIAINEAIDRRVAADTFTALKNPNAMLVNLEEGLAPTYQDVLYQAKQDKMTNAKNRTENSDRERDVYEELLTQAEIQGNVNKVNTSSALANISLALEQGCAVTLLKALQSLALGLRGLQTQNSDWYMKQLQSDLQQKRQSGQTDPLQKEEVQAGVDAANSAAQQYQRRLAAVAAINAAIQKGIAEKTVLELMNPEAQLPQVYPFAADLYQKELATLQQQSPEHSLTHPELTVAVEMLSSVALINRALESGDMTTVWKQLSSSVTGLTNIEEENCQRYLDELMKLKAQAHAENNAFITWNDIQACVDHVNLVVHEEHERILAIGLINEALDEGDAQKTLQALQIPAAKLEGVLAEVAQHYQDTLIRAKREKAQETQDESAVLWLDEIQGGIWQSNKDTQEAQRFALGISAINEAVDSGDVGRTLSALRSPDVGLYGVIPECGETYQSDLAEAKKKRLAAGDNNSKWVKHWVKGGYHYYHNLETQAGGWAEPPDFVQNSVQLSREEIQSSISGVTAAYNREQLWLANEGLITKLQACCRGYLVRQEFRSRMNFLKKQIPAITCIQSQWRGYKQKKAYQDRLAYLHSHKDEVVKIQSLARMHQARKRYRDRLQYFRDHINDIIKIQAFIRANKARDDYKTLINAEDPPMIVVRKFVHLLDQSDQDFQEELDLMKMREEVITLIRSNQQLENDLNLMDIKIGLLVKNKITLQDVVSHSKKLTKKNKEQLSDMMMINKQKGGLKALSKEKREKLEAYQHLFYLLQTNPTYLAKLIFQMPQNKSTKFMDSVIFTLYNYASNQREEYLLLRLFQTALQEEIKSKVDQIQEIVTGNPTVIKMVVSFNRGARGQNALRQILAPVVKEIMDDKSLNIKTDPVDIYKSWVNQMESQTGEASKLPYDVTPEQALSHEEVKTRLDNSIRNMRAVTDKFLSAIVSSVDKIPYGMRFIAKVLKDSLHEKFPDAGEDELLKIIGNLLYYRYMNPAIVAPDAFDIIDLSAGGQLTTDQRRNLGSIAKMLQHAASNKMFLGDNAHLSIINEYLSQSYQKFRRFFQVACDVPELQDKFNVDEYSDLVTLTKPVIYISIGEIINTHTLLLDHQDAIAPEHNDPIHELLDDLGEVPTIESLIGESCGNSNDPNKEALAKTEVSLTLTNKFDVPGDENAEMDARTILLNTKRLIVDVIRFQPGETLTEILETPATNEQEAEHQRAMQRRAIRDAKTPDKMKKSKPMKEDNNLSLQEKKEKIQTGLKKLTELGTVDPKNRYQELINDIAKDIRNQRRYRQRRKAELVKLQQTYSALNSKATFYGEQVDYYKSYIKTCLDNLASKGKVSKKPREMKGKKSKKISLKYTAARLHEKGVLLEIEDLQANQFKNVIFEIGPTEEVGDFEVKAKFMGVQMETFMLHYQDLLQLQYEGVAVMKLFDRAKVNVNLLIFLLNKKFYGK

Sequence of IQGAP1, endogenous, human NSCLC tissues (P46940 2-1657 limits assumed): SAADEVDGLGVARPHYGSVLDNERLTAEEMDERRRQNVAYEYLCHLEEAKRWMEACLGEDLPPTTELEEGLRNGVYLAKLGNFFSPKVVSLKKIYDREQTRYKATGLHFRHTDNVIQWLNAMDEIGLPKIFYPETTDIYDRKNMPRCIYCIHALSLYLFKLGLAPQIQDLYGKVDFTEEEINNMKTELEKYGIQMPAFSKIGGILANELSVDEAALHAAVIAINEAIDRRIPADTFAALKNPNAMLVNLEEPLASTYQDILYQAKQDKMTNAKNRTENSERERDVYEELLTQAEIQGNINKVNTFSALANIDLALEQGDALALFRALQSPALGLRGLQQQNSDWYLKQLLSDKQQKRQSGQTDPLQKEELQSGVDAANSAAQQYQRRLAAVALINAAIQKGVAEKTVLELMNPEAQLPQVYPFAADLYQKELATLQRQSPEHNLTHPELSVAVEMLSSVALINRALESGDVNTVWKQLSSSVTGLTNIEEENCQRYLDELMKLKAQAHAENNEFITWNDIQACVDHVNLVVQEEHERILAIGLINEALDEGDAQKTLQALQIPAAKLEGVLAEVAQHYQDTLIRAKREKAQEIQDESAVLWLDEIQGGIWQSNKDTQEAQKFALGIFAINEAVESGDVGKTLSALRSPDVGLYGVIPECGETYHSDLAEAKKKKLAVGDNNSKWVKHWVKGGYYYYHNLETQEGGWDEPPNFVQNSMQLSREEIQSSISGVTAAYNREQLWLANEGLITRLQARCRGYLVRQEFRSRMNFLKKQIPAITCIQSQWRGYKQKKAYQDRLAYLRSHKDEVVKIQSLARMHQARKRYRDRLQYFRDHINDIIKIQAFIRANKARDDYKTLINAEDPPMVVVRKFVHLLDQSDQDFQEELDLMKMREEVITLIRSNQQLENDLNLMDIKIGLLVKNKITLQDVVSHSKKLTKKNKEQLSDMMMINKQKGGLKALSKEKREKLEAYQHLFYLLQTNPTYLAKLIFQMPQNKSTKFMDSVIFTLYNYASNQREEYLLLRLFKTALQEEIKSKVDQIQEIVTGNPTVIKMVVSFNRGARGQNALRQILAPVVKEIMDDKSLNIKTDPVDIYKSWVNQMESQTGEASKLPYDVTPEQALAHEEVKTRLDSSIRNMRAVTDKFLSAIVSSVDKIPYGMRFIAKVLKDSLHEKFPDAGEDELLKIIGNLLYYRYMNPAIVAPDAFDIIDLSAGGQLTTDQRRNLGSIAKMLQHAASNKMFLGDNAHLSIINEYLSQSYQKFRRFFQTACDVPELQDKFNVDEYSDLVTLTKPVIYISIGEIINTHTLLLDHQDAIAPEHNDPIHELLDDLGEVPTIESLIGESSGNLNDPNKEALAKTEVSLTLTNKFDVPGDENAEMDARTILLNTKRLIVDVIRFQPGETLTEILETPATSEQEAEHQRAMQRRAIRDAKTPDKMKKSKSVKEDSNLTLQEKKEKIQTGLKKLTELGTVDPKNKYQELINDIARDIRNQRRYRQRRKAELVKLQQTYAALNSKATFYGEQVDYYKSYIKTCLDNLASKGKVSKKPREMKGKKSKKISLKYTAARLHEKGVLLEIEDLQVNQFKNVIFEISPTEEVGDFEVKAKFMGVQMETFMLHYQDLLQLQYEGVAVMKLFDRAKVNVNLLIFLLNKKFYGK

binding result [1]: binds
B1: GLK, endogenous, human NSCLC tissues (enzyme, UniProt Q8IVH8 1-894, looked up)
chain: MNPGFDLSRRNPQEDFELIQRIGSGTYGDVYKARNVNTGELAAIKVIKLEPGEDFAVVQQEIIMMKDCKHPNIVAYFGSYLRRDKLWICMEFCGGGSLQDIYHVTGPLSELQIAYVSRETLQGLYYLHSKGKMHRDIKGANILLTDNGHVKLADFGVSAQITATIAKRKSFIGTPYWMAPEVAAVERKGGYNQLCDLWAVGITAIELAELQPPMFDLHPMRALFLMTKSNFQPPKLKDKMKWSNSFHHFVKMALTKNPKKRPTAEKLLQHPFVTQHLTRSLAIELLDKVNNPDHSTYHDFDDDDPEPLVAVPHRIHSTSRNVREEKTRSEITFGQVKFDPPLRKETEPHHELPDSDGFLDSSEEIYYTARSNLDLQLEYGQGHQGGYFLGANKSLLKSVEEELHQRGHVAHLEDDEGDDDESKHSTLKAKIPPPLPPKPKSIFIPQEMHSTEDENQGTIKRCPMSGSPAKPSQVPPRPPPPRLPPHKPVALGNGMSSFQLNGERDGSLCQQQNEHRGTNLSRKEKKDVPKPISNGLPPTPKVHMGACFSKVFNGCPLKIHCASSWINPDTRDQYLIFGAEEGIYTLNLNELHETSMEQLFPRRCTWLYVMNNCLLSISGKASQLYSHNLPGLFDYARQMQKLPVAIPAHKLPDRILPRKFSVSAKIPETKWCQKCCVVRNPYTGHKYLCGALQTSIVLLEWVEPMQKFMLIKHIDFPIPCPLRMFEMLVVPEQEYPLVCVGVSRGRDFNQVVRFETVNPNSTSSWFTESDTPQTNVTHVTQLERDTILVCLDCCIKIVNLQGRLKSSRKLSSELTFDFQIESIVCLQDSVLAFWKHGMQGRSFRSNEVTQEISDSTRIFRLLGSDRVVVLESRPTDNPTANSNLYILAGHENSY

binding result [2]: binds
B2: RORγt, endogenous, human peripheral blood T cells (SLE and RA patients) (receptor, UniProt P51449-2 1-497, looked up)
chain: MRTQIEVIPCKICGDKSSGIHYGVITCEGCKGFFRRSQRCNAAYSCTRQQNCPIDRTSRNRCQHCRLQKCLALGMSRDAVKFGRMSKKQRDSLHAEVQKQLQQRQQQQQEPVVKTPPAGAQGADTLTYTLGLPDGQLPLGSSPDLPEASACPPGLLKASGSGPSYSNNLAKAGLNGASCHLEYSPERGKAEGRESFYSTGSQLTPDRCGLRFEEHRHPGLGELGQGPDSYGSPSFRSTPEAPYASLTEIEHLVQSVCKSYRETCQLRLEDLLRQRSNIFSREEVTGYQRKSMWEMWERCAHHLTEAIQYVVEFAKRLSGFMELCQNDQIVLLKAGAMEVVLVRMCRAYNADNRTVFFEGKYGGMELFRALGCSELISSIFDFSHSLSALHFSEDEIALYTALVLINAHRPGLQEKRKVEQLQYNLELAFHHHLCKTHRQSILAKLPPKGKLRSLCSQHVERLQIFQHLHPIVVQAAFPPLYKELFSTETESPVGLSK

binding result [3]: binds
B3: GLK, endogenous, lung tissues of mice in the LLC/luc metastatic lung cancer model (enzyme)
chain: not shown
